The text below walks through data of PMC11417369, “DNA sequence and chromatin differentiate sequence-specific transcription factor binding in the human malaria parasite Plasmodium falciparum”.

In the data set the target is T1, AP2-HC D1 (Plasmodium falciparum, UniProt Q8IKR9 1316-1374).
T1 sequence: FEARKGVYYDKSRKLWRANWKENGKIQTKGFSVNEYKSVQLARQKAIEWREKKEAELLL
Put plainly: gcPBM; about 25 ug protein; PBS, 1% milk, 0.2 mg/ml BSA, salmon testes DNA, 0.03% Triton X-100. Conditions: tags: N-terminal GST (pGEX-4T-1), kept; label: surface-attached array probe.

Where a chain is given by its changes, count along the chain named.

B1: CACACA_negctrl_site1097 (dsDNA)
DNA 1: ATATTTTTAGGTGATTATTATTCGGAGAAGCGAATT
DNA 2: AATTCGCTTCTCCGAATAATAATCACCTAAAAATAT
B1: the binding signal was 9.32 ln median PBM intensity, better of two orientations.

B2: CACACA_negctrl_site819 (dsDNA)
DNA 1: TGATTATATAAAAAAAAGAAAAAAAAAAAAAAAAAA
DNA 2: TTTTTTTTTTTTTTTTTTCTTTTTTTTATATAATCA
In the case of B2, the binding signal is 9.07 ln median PBM intensity, better of two orientations.

B3: CACACA_negctrl_site1298 (dsDNA)
DNA 1: ATATTATCATTTTTTTTAATGGAAAAAAAAAAAAAA
DNA 2: TTTTTTTTTTTTTTCCATTAAAAAAAATGATAATAT
On to B3, for which the binding signal is 9.12 ln median PBM intensity, better of two orientations.

B4: CACACA_negctrl_site18 (dsDNA)
DNA 1: TTTTTTTTTCTTCTTTTCAAATTTAAGAAATTATAA
DNA 2: TTATAATTTCTTAAATTTGAAAAGAAGAAAAAAAAA
As for B4, the binding signal was 9.28 ln median PBM intensity, better of two orientations.

B5: CACACA_negctrl_site662 (dsDNA)
DNA 1: TTGTATTATATTGTATTATGTTTAAATGAAAAAAAA
DNA 2: TTTTTTTTCATTTAAACATAATACAATATAATACAA
For the molecule B5, the binding signal was 9.32 ln median PBM intensity, better of two orientations.

B6: CACACA_negctrl_site792 (dsDNA)
DNA 1: AAAGAAAAAGAAAAAGAAAAATTAGAATATAAAATA
DNA 2: TATTTTATATTCTAATTTTTCTTTTTCTTTTTCTTT
For B6, the binding signal is 9.29 ln median PBM intensity, better of two orientations.

B7: CACACA_negctrl_site1520 (dsDNA)
DNA 1: TCTTAAATTATGATAAAATATAATAAATAAATAAAT
DNA 2: ATTTATTTATTTATTATATTTTATCATAATTTAAGA
Consider B7, for which the binding signal is 9.33 ln median PBM intensity, better of two orientations.

B8: CACACA_negctrl_site1718 (dsDNA)
DNA 1: TTTTTGCAAAAAGAAATAATTTTATTTTAGTTCGGA
DNA 2: TCCGAACTAAAATAAAATTATTTCTTTTTGCAAAAA
Consider B8, for which the binding signal is 9.16 ln median PBM intensity, better of two orientations.

B9: CACACA_negctrl_site191 (dsDNA)
DNA 1: TTGTTCATCTTTTTTTTTTTTTTTTTTTTTTAAATC
DNA 2: GATTTAAAAAAAAAAAAAAAAAAAAAAGATGAACAA
For B9, the binding signal was 9.2 ln median PBM intensity, better of two orientations.

B10: CACACA_negctrl_site1057 (dsDNA)
DNA 1: TGATTTTTTTTTTTTTTTTTTTTTTTTTTAGTTTGC
DNA 2: GCAAACTAAAAAAAAAAAAAAAAAAAAAAAAAATCA
Consider B10, for which the binding signal was 9.25 ln median PBM intensity, better of two orientations.

B11: CACACA_negctrl_site388 (dsDNA)
DNA 1: TTATTTAAAATTTTTATGCGTATATATATAGGAACA
DNA 2: TGTTCCTATATATATACGCATAAAAATTTTAAATAA
Take B11: the binding signal is 9.3 ln median PBM intensity, better of two orientations.

B12: CACACA_negctrl_site1293 (dsDNA)
DNA 1: TCATATTCCAAAAAAAAAAAAAAAAAAAAAAAAATA
DNA 2: TATTTTTTTTTTTTTTTTTTTTTTTTTGGAATATGA
With B12, the binding signal is 9.15 ln median PBM intensity, better of two orientations.

B13: CACACA_negctrl_site19 (dsDNA)
DNA 1: TTAAATTCGTCATTTTAAAATAATACAAAAGTTCAA
DNA 2: TTGAACTTTTGTATTATTTTAAAATGACGAATTTAA
For B13, the binding signal was 9.33 ln median PBM intensity, better of two orientations.

B14: CACACA_negctrl_site452 (dsDNA)
DNA 1: AATATATGATAATTTTTTTTTTTTTTTTTTAAATAT
DNA 2: ATATTTAAAAAAAAAAAAAAAAAATTATCATATATT
Regarding B14, the binding signal was 9.23 ln median PBM intensity, better of two orientations.

B15: CACACA_negctrl_site1657 (dsDNA)
DNA 1: TATTACATTATTCAAAAAAATTTATATGGTTATAGG
DNA 2: CCTATAACCATATAAATTTTTTTGAATAATGTAATA
Regarding B15, the binding signal was 9.24 ln median PBM intensity, better of two orientations.

B16: CACACA_negctrl_site1615 (dsDNA)
DNA 1: TTTTTTTGCATGAGCAATAAAAAAGGCTTGTTCAAA
DNA 2: TTTGAACAAGCCTTTTTTATTGCTCATGCAAAAAAA
On to B16, for which the binding signal was 9.03 ln median PBM intensity, better of two orientations.

B17: CACACA_negctrl_site1514 (dsDNA)
DNA 1: GAATAAAAAAAAAAAAAAATTTATTTTATAATAAAA
DNA 2: TTTTATTATAAAATAAATTTTTTTTTTTTTTTATTC
Consider B17, for which the binding signal is 9.25 ln median PBM intensity, better of two orientations.

B18: CACACA_negctrl_site1196 (dsDNA)
DNA 1: AAAAATTGAATTTTTTTTTTTTTTTTGAGAAGGAAA
DNA 2: TTTCCTTCTCAAAAAAAAAAAAAAAATTCAATTTTT
Regarding B18, the binding signal was 9.23 ln median PBM intensity, better of two orientations.

B19: CACACA_negctrl_site1042 (dsDNA)
DNA 1: ATCAAAAAAAAAAAATTTTTTTTTTTGTTTGTTTCC
DNA 2: GGAAACAAACAAAAAAAAAAATTTTTTTTTTTTGAT
Regarding B19, the binding signal is 9.33 ln median PBM intensity, better of two orientations.

B20: CACACA_negctrl_site643 (dsDNA)
DNA 1: TTTTAAAAAATATAATAATATAAATATGTTTTATAC
DNA 2: GTATAAAACATATTTATATTATTATATTTTTTAAAA
In the case of B20, the binding signal was 9.34 ln median PBM intensity, better of two orientations.

B21: CACACA_negctrl_site292 (dsDNA)
DNA 1: AAAAAAAAAAAAAAAAAAAAAAAAAAAAAAAAAAAG
DNA 2: CTTTTTTTTTTTTTTTTTTTTTTTTTTTTTTTTTTT
In the case of B21, the binding signal is 9.04 ln median PBM intensity, better of two orientations.

B22: CACACA_negctrl_site1364 (dsDNA)
DNA 1: B21 DNA 2 with C1A
DNA 2: B21 DNA 1 with G36T
For B22, the binding signal is 9.34 ln median PBM intensity, better of two orientations.

B23: CACACA_negctrl_site59 (dsDNA)
DNA 1: B21 DNA 1 with A30T, G36A
DNA 2: B21 DNA 2 with C1T, T7A
On to B23, for which the binding signal was 9.2 ln median PBM intensity, better of two orientations.

B24: CACACA_negctrl_site980 (dsDNA)
DNA 1: ATTTTTAAGCATATCAAAAAAAAAAAAAAAATTAAT
DNA 2: ATTAATTTTTTTTTTTTTTTTGATATGCTTAAAAAT
Take B24: the binding signal was 9.35 ln median PBM intensity, better of two orientations.

B25: CACACA_negctrl_site1354 (dsDNA)
DNA 1: TCTTTTTTTTCTTTTTTTTTATTTAAATATCAAGTA
DNA 2: TACTTGATATTTAAATAAAAAAAAAGAAAAAAAAGA
Turning to B25, the binding signal is 9.2 ln median PBM intensity, better of two orientations.

B26: CACACA_negctrl_site1530 (dsDNA)
DNA 1: TATTTTGAAATGGAAAGGATATAGAACTTAAACAAA
DNA 2: TTTGTTTAAGTTCTATATCCTTTCCATTTCAAAATA
For the molecule B26, the binding signal was 9.32 ln median PBM intensity, better of two orientations.

B27: CACACA_negctrl_site1226 (dsDNA)
DNA 1: TGTTATTTAAATAATTCTTTTTAAAAGATGAATTAT
DNA 2: ATAATTCATCTTTTAAAAAGAATTATTTAAATAACA
Consider B27, for which the binding signal was 9.21 ln median PBM intensity, better of two orientations.

B28: CACACA_negctrl_site822 (dsDNA)
DNA 1: TTTTTTCAATAAATAATCGTATATTGAATAATAATA
DNA 2: TATTATTATTCAATATACGATTATTTATTGAAAAAA
For B28, the binding signal is 9.23 ln median PBM intensity, better of two orientations.

B29: CACACA_negctrl_site1319 (dsDNA)
DNA 1: ATTTTTTTTTTTTTTTTTTTTTTTTATGAATGTTAT
DNA 2: ATAACATTCATAAAAAAAAAAAAAAAAAAAAAAAAT
With B29, the binding signal was 9.34 ln median PBM intensity, better of two orientations.

B30: CACACA_negctrl_site718 (dsDNA)
DNA 1: TATAACATTTTTTTCAAAATAGCTTTAGAAATAAAG
DNA 2: CTTTATTTCTAAAGCTATTTTGAAAAAAATGTTATA
In the case of B30, the binding signal is 9.31 ln median PBM intensity, better of two orientations.

B31: CACACA_negctrl_site1253 (dsDNA)
DNA 1: TAATATTTCGTTAAGTTTTAAAGAAAAAAAAAAAAA
DNA 2: TTTTTTTTTTTTTCTTTAAAACTTAACGAAATATTA
Regarding B31, the binding signal is 9.21 ln median PBM intensity, better of two orientations.

B32: CACACA_negctrl_site1113 (dsDNA)
DNA 1: TTTTTTTTTAAAGAAAATAAAAATATGTACTTGACA
DNA 2: TGTCAAGTACATATTTTTATTTTCTTTAAAAAAAAA
Consider B32, for which the binding signal is 9.17 ln median PBM intensity, better of two orientations.

B33: CACACA_negctrl_site1716 (dsDNA)
DNA 1: TTTATAGTTTTAAACAAAGTAATACAAATGTATATA
DNA 2: TATATACATTTGTATTACTTTGTTTAAAACTATAAA
As for B33, the binding signal is 9.34 ln median PBM intensity, better of two orientations.

B34: CACACA_negctrl_site856 (dsDNA)
DNA 1: TTTCCTGGTCAAGGGGTTACGGTTACGTCCTCTTGC
DNA 2: GCAAGAGGACGTAACCGTAACCCCTTGACCAGGAAA
B34: the binding signal is 9.35 ln median PBM intensity, better of two orientations.

B35: CACACA_negctrl_site959 (dsDNA)
DNA 1: ATTTTTTTTTAATGCAAAAGGTGATGATCGGTCATA
DNA 2: TATGACCGATCATCACCTTTTGCATTAAAAAAAAAT
Turning to B35, the binding signal is 9.27 ln median PBM intensity, better of two orientations.

B36: CACACA_negctrl_site1721 (dsDNA)
DNA 1: TTATATTTATATGTAATACAAAATAACAAAAAATTT
DNA 2: AAATTTTTTGTTATTTTGTATTACATATAAATATAA
Turning to B36, the binding signal is 9.33 ln median PBM intensity, better of two orientations.

B37: CACACA_negctrl_site34 (dsDNA)
DNA 1: TTATGTATATTATAAATTAATACATTTAAATTAATA
DNA 2: TATTAATTTAAATGTATTAATTTATAATATACATAA
Turning to B37, the binding signal is 9.28 ln median PBM intensity, better of two orientations.

B38: CACACA_negctrl_site1410 (dsDNA)
DNA 1: TAAAGTACAGGAGTAAATTGAAAAAAAAAAAAAAAA
DNA 2: TTTTTTTTTTTTTTTTCAATTTACTCCTGTACTTTA
On to B38, for which the binding signal was 9.3 ln median PBM intensity, better of two orientations.

B39: CACACA_negctrl_site488 (dsDNA)
DNA 1: TTTTTAATAAAATGATTGATAATTATTAAATTAAAA
DNA 2: TTTTAATTTAATAATTATCAATCATTTTATTAAAAA
With B39, the binding signal is 9.22 ln median PBM intensity, better of two orientations.

B40: CACACA_negctrl_site1570 (dsDNA)
DNA 1: TTTTTTTTTTTTTTTTTTTTTTTTTTTTTTTGGGGG
DNA 2: CCCCCAAAAAAAAAAAAAAAAAAAAAAAAAAAAAAA
On to B40, for which the binding signal is 9.36 ln median PBM intensity, better of two orientations.

B41: CACACA_negctrl_site383 (dsDNA)
DNA 1: GGAACCATCCAAAAAAAAAAAAAAAATAATAATAAT
DNA 2: ATTATTATTATTTTTTTTTTTTTTTTGGATGGTTCC
With B41, the binding signal was 9.18 ln median PBM intensity, better of two orientations.
